{"source": "paper PMC3736172", "about": "(Scientific Reports, 2013)", "molecules": {"B1": {"name": "glucosyl-3-phosphoglycerate synthase (GpgS) from Rhodopirellula baltica, recombinant 398-amino acid enzyme (enzyme)", "chain": "PDFYQHDMITTIHDLRSAKLDNLESMLRESTRNHDIGLVLPVTASDMRAEPFDVIVRELAQADYIASIVVSLGVAPDQSDYDETCAKIAPLGDRAKVLWTDGPEVQGLYNELIESGIDVSVPGKGRSVWTAFGYLLDDPDIETFVLHDCDIVDYDRQLLTRLCLPMVHPGLDFEFCKAYYARVTDRMHGRVVRLLVAPLLRALMQCFPENQFVRFLGNFRYPLSGEFSLTRNLARTNRVASDWGLEVGTLADVYRNTSHKRVCQVDLARLYEHKHQTLAVDQPSSGLIKMALDILTTIYRTLASQGIVFGESTFVTLRASFLRIAQDCIRQYAADARVNSLKYDRHSEEMAIEAFAQCVTQAGEIFAADPSGNPSIPNWTRVRAAFPDFTSRLRETVK"}, "B2": {"name": "mannosylglucosyl-3-phosphoglycerate synthase (MggA) from Rhodopirellula baltica, recombinant (enzyme)", "chain": "MKISAMKILIVHCHFERGGVTQVVDNHVHCLQGSDEIDEVALVSGPRQSGLQETTRSSASIWRIASLEYDSLRDTSLNVDEQAQNDKQAQHTAREIDERCRQAGWTRQETVVHWHNHSLGKNAASPLVIKHLADFGYSCLLQIHDFAEDQRPQNWAYLKQSHGCEKASELDAILYPHGDRLSYATLTTGDAETLVQFGIHRSRVDVLPNSVRLPTDELPEFEVATHKVQRAFDLPADFRWMLYPVRGIRRKNLGEFLLMCQLAGRPTIGAMTLMPDTPMEKRSYERWQAVAERCVENVVFNAAHHEDIQFVDNLSAASVVVSSSVAEGFGMVFLEPWLASRSVVARNLPGVTGDFINHGMRLEHLYDAVQIPGSHSWLTEANRQFQNAKTDAWKDVRRDVETALSPSASDQSISDANEWIDFARLTPAMQIEVLVRFNTDSGFAKEVRDRNAALCDALVTDARPEIIDYNRNIVAANFGPENQKQQLLNAYRKAISNESIPGTGVQNDQTMLELVENSRPFYPCRVEQLD"}}, "key": {"[1]": {"target": "T1, SPase (Rhodopirellula baltica, UniProt Q7UIS9)", "T1 sequence (Q7UIS9 1-571)": "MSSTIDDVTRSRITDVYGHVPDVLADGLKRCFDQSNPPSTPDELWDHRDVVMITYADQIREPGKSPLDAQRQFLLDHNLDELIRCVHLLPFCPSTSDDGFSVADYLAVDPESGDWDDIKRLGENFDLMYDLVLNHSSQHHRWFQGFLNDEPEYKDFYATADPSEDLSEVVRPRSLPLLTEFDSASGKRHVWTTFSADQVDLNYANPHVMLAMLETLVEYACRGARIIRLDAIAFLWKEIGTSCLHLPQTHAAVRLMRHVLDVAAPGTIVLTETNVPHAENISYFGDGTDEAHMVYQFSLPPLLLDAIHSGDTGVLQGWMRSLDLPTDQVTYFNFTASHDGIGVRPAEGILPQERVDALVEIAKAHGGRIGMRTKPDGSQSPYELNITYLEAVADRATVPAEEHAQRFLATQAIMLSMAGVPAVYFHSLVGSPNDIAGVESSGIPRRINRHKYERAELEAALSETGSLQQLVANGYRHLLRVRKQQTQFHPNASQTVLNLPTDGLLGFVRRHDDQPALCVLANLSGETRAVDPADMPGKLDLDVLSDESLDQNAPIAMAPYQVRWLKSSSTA", "assay": "turnover to fructose and glucose-1-phosphate", "assay_type": "cell-based", "conditions": "recombinant enzyme"}, "[2]": {"target": "the molecule itself", "assay": "SEC"}, "[3]": {"target": "the molecule itself", "assay": "SEC", "remark": "listed apart in the source"}}, "note": "Read-outs that look alike come from different tables or passages of the source.", "data": [{"molecule": "OC[C@H]1O[C@@](CO)(O[C@H]2O[C@H](CO)[C@@H](O)[C@H](O)[C@H]2O)[C@@H](O)[C@@H]1O", "note": "[sucrose]", "values": [{"measurement": "turnover to fructose and glucose-1-phosphate", "setting": "[1]", "result": "it catalyzed the conversion of sucrose to fructose and glucose-1-phosphate"}]}, {"molecule": "B1", "values": [{"measurement": "stoichiometry N", "setting": "[2]", "result": 5}]}, {"molecule": "B2", "values": [{"measurement": "stoichiometry N", "setting": "[3]", "result": 2}]}]}
